B1: Cyclin-dependent kinase 4 inhibitor C (Homo sapiens), P42773 (parent)
chain: MAEPWGNELASAAARGDLEQLTSLLQNNVNVNAQNGFGRTALQVMKLGNPEIARRLLLRGANPDLKDRTGFAVIHDAARAGFLDTLQTLLEFQADVNIEDNEGNLPLHLAAKEGHLRVVEFLVKHTASNVGHRNHKGDTACDLARLYGRNEVVSLMQANGAGGATNLQ

Variants of B1 are the subject of the test. Conditions: with cdk6_human CDK6, Q00534.
Chain of cdk6_human CDK6, Q00534 (Q00534 whole entry): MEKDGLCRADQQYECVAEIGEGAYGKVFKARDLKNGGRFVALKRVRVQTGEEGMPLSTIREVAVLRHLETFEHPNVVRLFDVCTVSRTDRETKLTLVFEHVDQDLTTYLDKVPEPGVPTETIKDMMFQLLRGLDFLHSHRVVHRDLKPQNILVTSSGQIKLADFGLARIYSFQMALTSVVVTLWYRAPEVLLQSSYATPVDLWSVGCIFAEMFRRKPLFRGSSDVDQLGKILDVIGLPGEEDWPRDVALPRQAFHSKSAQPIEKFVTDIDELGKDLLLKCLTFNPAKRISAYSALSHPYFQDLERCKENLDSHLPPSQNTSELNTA
Regarding MAEPWGNELASAAARGDLEQLTSLLQNNVNVNAQNGFGRTALQVMKLGNPEIARRLLLRGANPDLKDRTGFPVIHDAARAGFLDTLQTLLEFQADVNIEDNEGNLPLHLAAKEGHLRVVEFLVKHTASNVGHRNHKGDTACDLARLYGRNEVVSLMQANGAGGATNLQ [A72P], the “effect of a mutation on the interaction” value is recorded as “disrupting interaction”.

The record behind these values is IntAct's records for PubMed 8840966.
